In patent publication US9284543B2, “Neutral active soluble truncated PH20 polypeptides and uses thereof” (Halozyme, Inc., priority 2008, dated 2016):

How the values were obtained:
[1] = Microtiter hyaluronidase activity assay with biotinylated-hyaluronic acid; assay type: biochemical; conditions: Table 6, 72 hour post transfection supernatant
Method: In Example 4, the hyaluronidase activity of truncated human PH20 hyaluronidase is determined using biotinylated hyaluronic acid. The free carboxyl groups on the glucuronic acid residues of hyaluronic acid are biotinylated, and the biotinylated hyaluronic acid substrate is covalently coupled to a microtiter plate. Following incubation with hyaluronidase, the residual biotinylated hyaluronic acid substrate is detected using an avidin-peroxidase reaction, and compared to that obtained following reaction with hyaluronidase standards of known activity. […] The sensitivity permits rapid measurement of hyaluronidase activity from cultured cells and biological samples with an inter-assay variation of less than 10%.
In this example, the human PH20 hyaluronidase carboxy-terminus deletion mutants were tested for their PH20 hyaluronidase activity using a microtiter assay with biotinylated-hyaluronic acid (biotinylated-HA or bHA). The human PH20 hyaluronidase carboxy-terminus deletion mutants were tested for hyaluronidase activity at both pH 7.4 and pH 5.5.
In short, a 4×BH 96-well plate was coated with biotinylated-HA (1.1 MDa). The 72 hour post transfection supernatant from cells transfected with human PH20 hyaluronidase carboxy-terminus deletion mutants was diluted in buffer at either pH 7.4 or pH 5.5 and added to individual wells of the plate and allowed to incubate at 37° C. for 90 minutes. The reaction was terminated by addition of 4M guanidine HCl. The wells were washed 4× with Phosphate Buffered Saline with Tween20 (PBST) to remove any digested biotinylated-HA followed by addition of streptavidin-HRP for 1 hour at room temperature. The wells were washed 4× with PBST and the plate was developed with TMB. The plate was read at 450 nm using an ELISA plate reader. Hyaluronidase activity (in Units/mL) was determined by interpolating the measured absorbance at 450 nm with a hyaluronidase reference standard curve. Full length mature human PH20 hyaluronidase and untransfected CHO cells were used as positive and negative controls.

CHO-S cells = test: Western blot analysis of PH20 expression in media and cells after transient expression; assay type: cell-based, Chinese Hamster; conditions: media versus cells
Method: The mutant PH20-HZ24 plasmids generated in Example 1 were transiently […] into CHO—S cells (derived from Chinese Hamster Ovary CHO K1 cells) using GeneJuice® (Novagen) according to the manufacturer's instructions. In short, the CHO—S cells were grown in CD CHO medium supplemented with L-glutamine. Prior to transfection, the CHO—S cells were plated in 6-well plates, with approximately 5×10^5 cells per well, and grown overnight at 37° C. with 5% CO2. The medium was then removed and the CHO—S cells were washed 2 times with 1 mL serum-free medium. GeneJuice® was mixed with serum-free media followed by the addition of 2 μg mutant-HZ24 DNA. After incubating at room temperature for 5-15 minutes, the GeneJuice®/DNA mixture was added dropwise to an individual well containing the washed CHO—S cells. After 4 hours, the medium was replaced with 1 mL CD-CHO medium supplemented with L-glutamine and the cells were incubated for 72 hours at 37° C. with 5% CO2. Following expression, the media and cells were harvested separately.
The mutant PH20-HZ24 plasmids generated in Example 1 were transiently […] into CHO—S cells using GeneJuice® (Novagen) according to the manufacturer's instructions. […]
In this example, following transient expression, as described in Example 2 above, the media and cells were harvested separately and analyzed for PH20 expression and solublility by Western blot analysis. Solubility of the C-terminus truncation mutants was determined by examining whether the expressed protein was present in the growth media or in the cells. […] Cells expressing these mutants were treated with phosphoinositol-phospholipase C (PI-PLC), which cleaves the GPI-anchor allowing the release of soluble protein into the media, and the presence of PH20 in the resulting media and cells was determined by Western blot analysis.
Non-reduced samples were run on a 4-20% Tris-Glycine gel and transferred to PVDF membrane using iBlot (Invitrogen). For the Western blot, rabbit anti-PH20 IgG (0.5 μg/mL) was used as the primary antibody and HRP-conjugated goat anti-rabbit IgG (0.1 ng/mL, Cat#DC03L, EMD) was used as the secondary antibody. Evidence of expression is determined by a band at approximately 66 kDa, corresponding to recombinant human PH20 hyaluronidase.

| Molecule | pH 5.5 Activity [1] [Units/ml] | pH 7.4 Activity [1] [Units/ml] | Expressed in Media (CHO-S cells) |
| --- | --- | --- | --- |
| SPAM1-DGVC: C-terminally truncated human PH20, precursor 464 aa (SEQ ID NO:36), mature 429 aa (SEQ ID NO:88) (protein, listed as Homo sapiens, HuPH20 precursor 1-464; Mature HuPH20 36-464) chain 1: MGVLKFKHIFFRSFVKSSGVSQIVFTFLLIPCCLTLNFRAPPVIPNVPFLWAWNAPSEFCLGKFDEPLDMSLFSFIGSPRINATGQGVTIFYVDRLGYYPYIDSITGVTVNGGIPQKISLQDHLDKAKKDITFYMPVDNLGMAVIDWEEWRPTWARNWKPKDVYKNRSIELVQQQNVQLSLTEATEKAKQEFEKAGKDFLVETIKLGKLLRPNHLWGYYLFPDCYNHHYKKPGYNGSCFNVEIKRNDDLSWLWNESTALYPSIYLNTQQSPVAATLYVRNRVREAIRVSKIPDAKSPLPVFAYTRIVFTDQVLKFLSQDELVYTFGETVALGASGIVIWGTLSIMRSMKSCLLLDNYMETILNPYIINVTLAAKMCSQVLCQEQGVCIRKNWNSSDYLHLNPDNFAIQLEKGGKFTVRGKPTLEDLEQFSEKFYCSCYSTLSCKEKADVKDTDAVDVCIADGVC chain 2: LNFRAPPVIPNVPFLWAWNAPSEFCLGKFDEPLDMSLFSFIGSPRINATGQGVTIFYVDRLGYYPYIDSITGVTVNGGIPQKISLQDHLDKAKKDITFYMPVDNLGMAVIDWEEWRPTWARNWKPKDVYKNRSIELVQQQNVQLSLTEATEKAKQEFEKAGKDFLVETIKLGKLLRPNHLWGYYLFPDCYNHHYKKPGYNGSCFNVEIKRNDDLSWLWNESTALYPSIYLNTQQSPVAATLYVRNRVREAIRVSKIPDAKSPLPVFAYTRIVFTDQVLKFLSQDELVYTFGETVALGASGIVIWGTLSIMRSMKSCLLLDNYMETILNPYIINVTLAAKMCSQVLCQEQGVCIRKNWNSSDYLHLNPDNFAIQLEKGGKFTVRGKPTLEDLEQFSEKFYCSCYSTLSCKEKADVKDTDAVDVCIADGVC | 0.045 | 0 | YES |
| SPAM1-IADG: C-terminally truncated human PH20, precursor 462 aa (SEQ ID NO:37), mature 427 aa (SEQ ID NO:89) (protein, listed as Homo sapiens, HuPH20 precursor 1-462; Mature HuPH20 36-462) chain 1: MGVLKFKHIFFRSFVKSSGVSQIVFTFLLIPCCLTLNFRAPPVIPNVPFLWAWNAPSEFCLGKFDEPLDMSLFSFIGSPRINATGQGVTIFYVDRLGYYPYIDSITGVTVNGGIPQKISLQDHLDKAKKDITFYMPVDNLGMAVIDWEEWRPTWARNWKPKDVYKNRSIELVQQQNVQLSLTEATEKAKQEFEKAGKDFLVETIKLGKLLRPNHLWGYYLFPDCYNHHYKKPGYNGSCFNVEIKRNDDLSWLWNESTALYPSIYLNTQQSPVAATLYVRNRVREAIRVSKIPDAKSPLPVFAYTRIVFTDQVLKFLSQDELVYTFGETVALGASGIVIWGTLSIMRSMKSCLLLDNYMETILNPYIINVTLAAKMCSQVLCQEQGVCIRKNWNSSDYLHLNPDNFAIQLEKGGKFTVRGKPTLEDLEQFSEKFYCSCYSTLSCKEKADVKDTDAVDVCIADG chain 2: LNFRAPPVIPNVPFLWAWNAPSEFCLGKFDEPLDMSLFSFIGSPRINATGQGVTIFYVDRLGYYPYIDSITGVTVNGGIPQKISLQDHLDKAKKDITFYMPVDNLGMAVIDWEEWRPTWARNWKPKDVYKNRSIELVQQQNVQLSLTEATEKAKQEFEKAGKDFLVETIKLGKLLRPNHLWGYYLFPDCYNHHYKKPGYNGSCFNVEIKRNDDLSWLWNESTALYPSIYLNTQQSPVAATLYVRNRVREAIRVSKIPDAKSPLPVFAYTRIVFTDQVLKFLSQDELVYTFGETVALGASGIVIWGTLSIMRSMKSCLLLDNYMETILNPYIINVTLAAKMCSQVLCQEQGVCIRKNWNSSDYLHLNPDNFAIQLEKGGKFTVRGKPTLEDLEQFSEKFYCSCYSTLSCKEKADVKDTDAVDVCIADG | 0.00225 | 0 | YES |
| SPAM1-VCID: C-terminally truncated human PH20, precursor 466 aa (SEQ ID NO:34), mature 431 aa (SEQ ID NO:86) (protein, listed as Homo sapiens, HuPH20 precursor 1-466; Mature HuPH20 36-466) chain 1: MGVLKFKHIFFRSFVKSSGVSQIVFTFLLIPCCLTLNFRAPPVIPNVPFLWAWNAPSEFCLGKFDEPLDMSLFSFIGSPRINATGQGVTIFYVDRLGYYPYIDSITGVTVNGGIPQKISLQDHLDKAKKDITFYMPVDNLGMAVIDWEEWRPTWARNWKPKDVYKNRSIELVQQQNVQLSLTEATEKAKQEFEKAGKDFLVETIKLGKLLRPNHLWGYYLFPDCYNHHYKKPGYNGSCFNVEIKRNDDLSWLWNESTALYPSIYLNTQQSPVAATLYVRNRVREAIRVSKIPDAKSPLPVFAYTRIVFTDQVLKFLSQDELVYTFGETVALGASGIVIWGTLSIMRSMKSCLLLDNYMETILNPYIINVTLAAKMCSQVLCQEQGVCIRKNWNSSDYLHLNPDNFAIQLEKGGKFTVRGKPTLEDLEQFSEKFYCSCYSTLSCKEKADVKDTDAVDVCIADGVCID chain 2: LNFRAPPVIPNVPFLWAWNAPSEFCLGKFDEPLDMSLFSFIGSPRINATGQGVTIFYVDRLGYYPYIDSITGVTVNGGIPQKISLQDHLDKAKKDITFYMPVDNLGMAVIDWEEWRPTWARNWKPKDVYKNRSIELVQQQNVQLSLTEATEKAKQEFEKAGKDFLVETIKLGKLLRPNHLWGYYLFPDCYNHHYKKPGYNGSCFNVEIKRNDDLSWLWNESTALYPSIYLNTQQSPVAATLYVRNRVREAIRVSKIPDAKSPLPVFAYTRIVFTDQVLKFLSQDELVYTFGETVALGASGIVIWGTLSIMRSMKSCLLLDNYMETILNPYIINVTLAAKMCSQVLCQEQGVCIRKNWNSSDYLHLNPDNFAIQLEKGGKFTVRGKPTLEDLEQFSEKFYCSCYSTLSCKEKADVKDTDAVDVCIADGVCID | 0.2115 | 0 | YES |
| SPAM1-GVCI: C-terminally truncated human PH20, precursor 465 aa (SEQ ID NO:35), mature 430 aa (SEQ ID NO:87) (protein, listed as Homo sapiens, HuPH20 precursor 1-465; Mature HuPH20 36-465) chain 1: MGVLKFKHIFFRSFVKSSGVSQIVFTFLLIPCCLTLNFRAPPVIPNVPFLWAWNAPSEFCLGKFDEPLDMSLFSFIGSPRINATGQGVTIFYVDRLGYYPYIDSITGVTVNGGIPQKISLQDHLDKAKKDITFYMPVDNLGMAVIDWEEWRPTWARNWKPKDVYKNRSIELVQQQNVQLSLTEATEKAKQEFEKAGKDFLVETIKLGKLLRPNHLWGYYLFPDCYNHHYKKPGYNGSCFNVEIKRNDDLSWLWNESTALYPSIYLNTQQSPVAATLYVRNRVREAIRVSKIPDAKSPLPVFAYTRIVFTDQVLKFLSQDELVYTFGETVALGASGIVIWGTLSIMRSMKSCLLLDNYMETILNPYIINVTLAAKMCSQVLCQEQGVCIRKNWNSSDYLHLNPDNFAIQLEKGGKFTVRGKPTLEDLEQFSEKFYCSCYSTLSCKEKADVKDTDAVDVCIADGVCI chain 2: LNFRAPPVIPNVPFLWAWNAPSEFCLGKFDEPLDMSLFSFIGSPRINATGQGVTIFYVDRLGYYPYIDSITGVTVNGGIPQKISLQDHLDKAKKDITFYMPVDNLGMAVIDWEEWRPTWARNWKPKDVYKNRSIELVQQQNVQLSLTEATEKAKQEFEKAGKDFLVETIKLGKLLRPNHLWGYYLFPDCYNHHYKKPGYNGSCFNVEIKRNDDLSWLWNESTALYPSIYLNTQQSPVAATLYVRNRVREAIRVSKIPDAKSPLPVFAYTRIVFTDQVLKFLSQDELVYTFGETVALGASGIVIWGTLSIMRSMKSCLLLDNYMETILNPYIINVTLAAKMCSQVLCQEQGVCIRKNWNSSDYLHLNPDNFAIQLEKGGKFTVRGKPTLEDLEQFSEKFYCSCYSTLSCKEKADVKDTDAVDVCIADGVCI | 0.468 | 0.441 | YES |
